The assay concerns the target full-length MDGI (mammary-derived growth inhibitor) expressed from the pcDNA3-9E10 plasmid as a c-Myc fusion protein (mouse) (UniProt P11404). Put plainly: phage binding to U2OS cells transiently transfected with MDGI, 2 h at 4 C, bound phage titrated.

Where no end group is shown, it is not given here.

On to CGLSGLGVA (peptide, not shown: large carriers, also: displayed on T7 phage capsid protein) [CooP displaying phage (phage 36), peptide sequence …], for which the fold increase of phage binding compared to the original library is 10 fold.

Values taken from patent publication US20150212086A1.
